{"source": "paper PMC6282390", "key": {"[1]": {"test_system": "Dicer D1320A/D1709A (Homo sapiens)", "assay": "EMSA", "conditions": "5'-phosphate, 3'-OH; 50 mM Tris pH 7.6, 50 mM NaCl, 10% glycerol, 0.05% NP-40, 2 mM DTT, (0.5 mM EDTA for WT), 2 pM RNA (10 pM in Fig. 4 legend), 30 min at 4 °C"}, "Dicer WT (Homo sapiens)": {"test_system": "Dicer WT (Homo sapiens)", "assay": "EMSA", "conditions": "5'-phosphate, 3'-OH; 50 mM Tris pH 7.6, 50 mM NaCl, 10% glycerol, 0.05% NP-40, 2 mM DTT, (0.5 mM EDTA for WT), 2 pM RNA (10 pM in Fig. 4 legend), 30 min at 4 °C"}}}
{"substance": "pre-let-7a-1", "values": [{"measurement": "Kd", "setting": "[1]", "value": 9, "unit": "nM"}, {"measurement": "Kd", "setting": "Dicer WT (Homo sapiens)", "value": 5, "unit": "nM"}]}
